{"source": "paper PMC10127692", "about": "“SARS-CoV-2 SUD2 and Nsp5 Conspire to Boost Apoptosis of Respiratory Epithelial Cells via an Augmented Interaction with the G-Quadruplex of BclII” (mBio, 2023)", "binders": {"B1": {"name": "His-tagged SUD2_(core), recombinant (domain or fragment)", "chain": "KKIKACVEEVTTTLEETKFLTENLLLYIDINGNLHPDSATLVSDIDITFLKKDAPYIVGDVVQEGVLTAVVIPTKKAGGTTEMLAKALRKVPTDNYITTYPGQGLNGYTVEEAKTVLKKCKSAFYILPSIISNEKQEILGTVSWNLREMLAHAEETRKLMPVCVETKAIVSTIQRKYKGIKIQEGVVDYGARFYFYTSKTTVASLINTLNDLNETLVTMPLGYVTHGLNLEEAARYMRSLKVPATVSVSSPDAVTAYNGYLTSS"}}, "biological_target": "T1, GST-tagged Nsp5, recombinant (SARS-CoV-2, UniProt P0DTD1 3264-3569)", "T1 construct": "also called GST-Nsp5; Nsp5-GST", "assay": "BLI", "details": "both partners purified", "data": [{"binder": "B1", "values": [{"measurement": "Kd", "result": 37.4, "unit": "nM"}]}]}
